The nature of the series: soluble on expression in E. coli; label from the status in PepcDB or PDB records.
As to “MSLAHEMRDGSSRGLRIDFHVHLGVYADHKPWVTEWIKQSQPDPGEYDAYIERYSDPGAFEELLAAEGVDYACVLAELCPITTGICSNEQVEAFCKGRKRLIPFCSINPHLTTDLGGELRRLVETEGFRGLKLYPSYQHYYLNDPRVYPLYQAAQELGIPVLIHTGSSVFKGTRIKYCDPIHLDDVANDFPSLNLVMAHSGRGFWYDRAFFLSKLHSNLYMEVSGLPPSKLMTYFPELARNTDKVIFGSDWPGASQIKRNMDAIGALPLPAEGVEKILGGNAARLLNFEGHHHHHH”, the “soluble on expression in E. coli” value was “soluble”.
With “MEERLNRVKQQLQQSSYKLTPQREATVRVLIENEKDHLSAEDVYLKVKDKAPEIGLATVYRTLELLAELKVVDKINFGDGVARFDLRKEGAKHFHHHLVCMECGRVDEIDEDLLPEVENRVENEFNFKILDHRLTFHGVCETCQAKGKG”, the “soluble on expression in E. coli” value is recorded as “not soluble”.
As to “MGSDKIHHHHHHMNDLKRLPYEPVKGLLPRPAVGTSERVITLPEPDRTSGMPLMGTLWLRKSTREFDQQPLPLKQLSELLWAAAGVNRSLGGGRTAPSPYGETVIDVYVALPAGLYRYDPVHHCLELKRAADLRSMTGYQDFVGMAPLDLVFVANHGRMQEMPPKLRETFSAAAAGAMAENAYLYCASAGLGAVVRGWLNRRQLAEHMSLNEDEEPILSQTIGRAASHVTTTQA”, the “soluble on expression in E. coli” value was “not soluble”.
For the sequence “MSLTETAIENSVTVFHIESDEIKGRIIGREGRNIRALEAATGVEIVVDDTPEAIVLSAFDPVRREIARLALHQLVTDGRIHPARIEEVVAKVRKQVEEEIIETGKRTTIDLGIHGLHPELIRIIGKMKYRSSYGQNLLQHARETANLCAVMASELGLNPKKAKRAGLLHDIGKVPDEEPELPHALLGMKLAEKFKEKPDICNAIGAHHDEIEMTSLLAPIVQVCDAISGARPGARREIVEAYIKRLNDLEQLAMSYPGVTKTYAIQAGRELRVIVGADKIDDKQTENLSGEIAKKIQDEMTYPGQVKITVIRETRAVSFAKEGHHHHHH”, the “soluble on expression in E. coli” value was “soluble”.
The result for “MGSDKIHHHHHHMQNVIENFKQLCKIPHCSYETEQMKEFLSSYAKDKGFKVSVDKAGNIHAIKGKPKICLQSHYDMVCMGDAPNLEVYEENGFLRAKNSSLGADNGIGIAIMMSAMAEFENLECLFTNDEEVGLMGVNLLEHTLESKMLLNLDHESDDEIMIGCAGGVDIEASLSFNTLRKKGKIYELCAQNFKGGHSGINIIRNEKSSIKEMAKFIQENEGEIISFEGGERINSIPKHAKALVHFKDEVKSNNWIKCEFKEENEFEICDQSKKLLSLINSFTHGVRAYDENLDIVQTSINLATLRMQDNQIKFALFARSNILDGLKQVEFETLEFFKAFDFKIRSFNFYPPWEGKPNALSDMVFKALKKVSPNAKVSAIHAGLECGIIEKKQELLCASIGPNIHNPHSTDEHCEIASVEKISKVVFEVLKDNA” reads “not soluble”; that for “MLEYKLIRSKRRKTLALQVKHGQVTVRAPHYVTSAFIDTFIQEKSAWLRSKLAEQQKTPEYCDFSQGSNLLYLGEKVILNICIAKKSEVYFSHLVIAEIEPKNYQEITTKQLNVAISEKIHSRLINPLAISKQIKKQLEVYFKQQAEQLFSERLERISKQISLCPTAINIRQYRARWGSCNNRGEVSFNYLLMMTPLTVIDYVIVHELCHLEHLNHSKEFWHLVEKFCPNYEIAKKWLNTYQSLEHHHHHH”, “soluble”; that for “MGSDKIHHHHHHMDYSSKDIKSIISEILDKKKAKGGVKSIYVVGCGGSLGALYPAKTFMEKECTSIKSAWINSSEFIHSTPKDFGVNSIICLACHKGNTPETIAAAKLGKEMGATVIILTWLKESEIIEFGDYIIRYTFDASPDHLKGDIDYSGEKTICALLVAVELLAQTEGYENYNKFYEGTKMISNIIKNARNHVAERAVKFAEKYKDDSVIYTMGSGASYGAAYMESICIFMEMQWLNSSSIHTGEYFHGPFEITDANRPFMIQISEGSTRDLDERALKFLNTYAKRIEVLDAKELGLSTIDASVVDYFNHSLFNNVYPIYNHELATKREHPLPTRRYMWKVEY”, “not soluble”.
The result for “SASSEVARHLLFQSHMATKTTCMSSQGSDDEQIKRENIRSLTMSGHVGFESLPDQLVNRSIQQGFCFNILCVGETGIGKSTLIDTLFNTNFEDYESSHFCPNVKLKAQTYELQESNVQLKLTIVNTVGFGDQINKEESYQPIVDYIDAQFEAYLQEELKIKRSLFTYHDSRIHVCLYFISPTGHSLKTLDLLTMKNLDSKVNIIPVIAKADTVSKTELQKFKIKLMSELVSNGVQIYQFPTDDDTIAKVNAAMNGQLPFAVVGSMDEVKVGNKMVKARQYPWGVVQVENENHCDFVKLREMLICTNMEDLREQTHTRHYELYRRCKLEEMGFTDVGPENKPVSVQETYEAKRHEFHGERQRKEEEMKQMFVQRVKEKEAILKEAERELQAKFEHLKRLHQEERMKLEEKRRLLEEEIIAFSKKKATSEIFHSQSFLATGSNLRKDKDRKNSNFL” reads “not soluble”; that for “MSLNNLEKASRLIDEENNYYARSARINYYDLVINHAHGATLIDVDGNEYIDLLASASAINVGHTNERVVKAISRQAQKLIHYTPAYFHHVPGIELSKRLAELAPGNSPKMVSFGNSGSDANDAIIKFSRAYTSRQYIVSYMGSYHGSNYGSQSLSGTSLNMTRKIGPMLPGVVHVPYPDLYRRYAGETEHDVAIRYFNAFKAPFESFLPADETACVLVEPIQGDGGIVKAPEEYMQLVYKFCHDNGILFAVDEVNQGLGRTGKMWGIQQYKDIEPDLMSVGKSLASGMPLSAVVGKKDIMQSLDAPAHIFTTSGNPVCAAASLATLNVIRDDHLVEKSAKDGEYAKQRFLEMQRHHPIIGDVRMWGLNGGIELVKDPKTKEAENDAATKVIYYAFAHGVVIITLAGNILRFQPPLVISHKQLDKALQVLDDAFTAVEQNKVEVPKDTGKIGWEGHHHHHH”, “not soluble”.
Consider “MSLCDRSEVGDVSLGMFTLKDIKINNLTDPVVTGVTCHVASIEADLSLADPSDSSISCRQTGEITPEMIAQIDKSSSGEVVFQKSKSIFFKSMKIRRIFDAKNQTLMYLSYSTKETSGSFKHSLSTVPLWGTQAYNAFPETQNKEGHHHHHH”, for which the “soluble on expression in E. coli” value was “soluble”.
Next, “TQVFDLEGYGAISRAMGGTSSSYYTGNAALISNPATLSFAPDGNQFELGLDVVTTDIKVHDSHGAEAKSSTRSNNRGPYVGPQLSYVAQLDDWRFGAGLFVSSGLGTEYGSKSFLSQTENGIQTSFDNSSRLIVLRAPIGFSYQATSKLTFGASVDLVWTSLNLELLLPSSQVGALTAQGNLSGGLVPSLAGFVGTGGAAHFSLSRNSTAGGAVDAVGWGGRLGLTYKLTDNTVLGAMYNFKTSVGDLEGKATLSAISGDGAVLPLDGDIRVKNFEMPASLTLGLAHQFNERWVVAADIKRAYWGDVMDSMNVAFISQLGGIDVALPHRYQDITVASIGTAYKYNNDLTLRAGYSYAQQALDSELILPVIPAYLKRHVTFGGEYDFDKDSRINLAISFGLRERVQTPSYLAGTEMLRQSHSQINAVVSYSKNFHHHHHH”: “soluble”.
As to “MRYDVVVVGSGVAGPIVARNVAKAGFSVLLVDKKPAIGAPKQCAEGLTINAFKQFDIPYDKRFINREIYGAKIYSPSGYTAELRYKEVSGVILERKVFDKMLAYYAAKAGAEVLARTEVVDVIRREGKIVGVKAKHEGEPMEIEAKVIVAADGVESTIARKAGIDTYAPPHEFDSGYEYEMIIEGFDPDLIHLFFGNEVAPRGYVWVFPKDEDRANVGIGINSDNEKTAKYYLDKWLKENNIPRNKILEVNVGLIPVGGFVKELVKENVLVVGDAARQVNPIHGGGMAEAMKASTIASKWIIKALEEENLELLKNYKEEWWKTEGPRMEKLLRLRRAMEKLTDEDLDVFVQLVSGTDLEKIAGGNYIEVVKALMKHPKVLMSRRRLEILKALLLEHHHHHH”, the “soluble on expression in E. coli” value is given as “soluble”.
Next, “MGSDKIHHHHHHMGETVPEKAQGAIRHGGNLGKARLMFRQAPEPWIDLSTGINPHSYPHSPIPASAFARLPEPGAAEELKQLAAAHFGAPSAQHVTLSPGTQMLMPLLAQIAINRGAQSGAVLSPAYAEHARTARMAGLTVTEVENIGDLSAYGYAVVVNPNNPDGRITDREALLALAGTIGRKGGLLVVDEAFIETGGAESLAVATNGEALVVLRSFGKFYGMAGVRLGFAIAHPEIAAELEARLGPWAVSGPALHIATEALADREWQSSMRLRLAEEARRMNELLEKAGLKIAGGTSLFTLVRDERSRALFGHLGRRGILVRIFDERPDDMRFGLPGSEADWQRVEEALRSFDHSSKV”: “not soluble”; “KKDDFRNEFDHLLIEQANHAIEKGEHQLLYLQHQLDELNENKSKELQEKIIRELDVVCAMIEGAQGALERELKRTDLNILERFNYEEAQTLSKILLKDLKETEQKVKDIQTQ”: “soluble”; “MSLTIKVFSPKYPTELEEFYAERIADNPLGFIQRLDLLPSISGFVQKLREHGGEFFEMREGNKLIGICGLNPINQTEAELCKFHINSAYQSQGLGQKLYESVEKYAFIKGYTKISLHVSKSQIKACNLYQKLGFVHIKEEDCVVELGEETLIFPTLFMEKILSEGHHHHHH”: “soluble”.
As to “AHHHHHHGSRTNAFEAVARYVYPSLRRRLVEILRERGLTQIQIAELLHITQSAVSRYLRMNRGALIEVEKFQDIDEKLKGLADTIVREKPDEYYIHGELVKIAVEMLGKGYVCSFHSKVDPEIDPKLCRICIETFG”, the “soluble on expression in E. coli” value was “not soluble”.
Next, “MKQLYWYTCGEGDCDLVLLHGWGLNSGVWHCIIDRLAPHFRLHLVDLPGYGRSQDYGAMSLADMAERVAQQAPKQALWLGWSMGGLVASQIALSQPECVRGLITVSSSPCFTARDEWPGIKPEVLAGFQHQLSDDFHRTVERFLALQTLGTESSRQDARLLKSVVLQHQMPDVEVLTGGLAILRTADLRTALAGFTLPFMRVYGHLDSLVPRKVASLLDSAWPQTQSVVMQGAAHAPFISHPNDFAKLILNFAEENKK”: “not soluble”.
The result for “TNTDQSIKFTSKSNSINKNNQNKELALLRDNLMNEAKVDEPLSFEKRFENFKNKYSDIHSLNNSVFSLHDVYDLLGGFKQSLTTFFDEVIAQQQKIKDADKIFPSTKDNPPKEENPNVLDTLANYQGAGFFPSLGKNGFNLPEAVFQNFTDFRINDYKIKNFNVDLVSENDIIKHDKVRYAFEV” reads “not soluble”.
The result for “MNDGNSRTPYNSLYKPLNLIKSKPDGCCKHNGQCPYGKNQAESVDDGNSRTPYNSIYEPLSLNKSKPDSQCSNGKKPADDEYVNLLLPQSKEEQVAEKLADKLRKLEVKESKGKRRGSKERKKKKPEPVESTYESLASIEGSTNFSGPVTTESLESNVKCHHASQTAYIGVYSSADAEAQVKNRGEFALYHQFEVGNRLDHLTATLPLMLVYYTTTKKHRHYPVRKSGDNGTVQYSVDCGYPIVRKHFSINQLVLYYKTFGSIQMKQEDICSEEFSWWLE” reads “not soluble”.
Regarding “MDQFECINVADAHQKLQEKEAVLVDIRDPQSFAMGHAVQAFHLTNDTLGAFMRDNDFDTPVMVMCYHGNSSKGAAQYLLQQGYDVVYSIDGGFEAWQRQFPAEVAYGA”, the “soluble on expression in E. coli” value is “soluble”.
As to “VAEQKVKRNVELAGVDVILVHRMLKNEVPVSEYLFMTDVVAQCLDESVRKLATPLTHDFEGIGETSTHYIDLATSDMPPAVPDHSFFGLLWADVKFEWHALPYLLGFKKACAGFRSLGRGATEEPAEMG”, the “soluble on expression in E. coli” value is “not soluble”.
With “MGHHHHHHGGHMSLGALILSDRDIRALLAIGDLVVEPLSGDTVRENGLDLRLGRGFCRFKRSDRVLDPRAPGSPGEFYECGEGDEIIVGPGEHMLLHTQEYIRLPGYVAGLVNLRSTWARTGIYIPATVVDAGFEGQLTIEVVGSGFPVKLYPGDRFLHLVLVKLQSPAMNPYRGRYQGQRGVRLPKLFAKNTGEGGS”, the “soluble on expression in E. coli” value was “soluble”.

The values above are taken from the DeepSol protein solubility set.
